{"source": "the DeepSol protein solubility set"}
{"assay": "soluble on expression in E. coli; label from the status in PepcDB or PDB records"}
{"sequence": "MKGRIELGDVTPHNIKQLKRLNQVIFPVSYNDKFYKDVLEVGELAKLAYFNDIAVGAVCCRVDHSQNQKRLYIMTLGCLAPYRRLGIGTKMLNHVLNICGWMDGWMDGWMDGRASEIVEIPCLFLGYQFPKQSKSKLRSLVLSTFTLMDKLQRALAKRRGHK", "soluble on expression in E. coli": "not soluble"}
{"sequence": "MSLQLADAQADLPYIHGFSAAEQARLVRQARFSEAMVYRDVDFSGVQKLLEVGCGVGAQTEILLRRFPDVGITGLDFSQRQLAVARQRLQGSPYHDRATLLHMDAEDLDFPPASFDGAFLCWILEHVHSPERVLAEVRRVLKPGARLYATEAMNATFFLAPYSANLQQYWLAFNDHQLSVGGDPFVGAKLGNILMRLGFRHVETKVKTWHLDSREPHRRQQVLDYWAELLLSAADQLIEAGRVDAELVDSMTRELRLLRSNPELVFFYSFMQASAVVEGHHHHHH", "soluble on expression in E. coli": "soluble"}
{"sequence": "MPMINALGLLEVDGMVAAIDAADAMLKAANVRLLSHEVLDPGRLTLVVEGDLAACRAALDAGCAAAMRTGRVISRKEIGRPDDDTQWLVTGFNRQPKQPVREPDAPVIVAESADELLALLTSVRQGMTAGEVAAHFGWPLEKARNALEQLFSAGTLRKRSSRYRLKPH", "soluble on expression in E. coli": "not soluble"}
{"sequence": "MIDVMQIQEILPHRYPFLLVDKITELKVKEVVLGYKNISISDHVFMGHFPGHPIYPGVLILEGMAQTGGVLAFESMEDKVDPKSKVVYFTGIDGAKFRNPVRPGDRLDYEMSVVKNRGNMWIFKGQAFVDGNLVAEAELKAMIVDK", "soluble on expression in E. coli": "soluble"}
{"sequence": "MGHHHRRDTERVCIRTRKIYDWVTRQVDVPLRSFSGEDLEAIFPMDHCRREGTICDFLGAQHTNPQHLTIRCFLTDADGNPIDSVVDQDALICQEITQPNGRQSVNVTLPSGETVTLQKVKALIKGHVVVQIVSPAGTVICQSKPIPFATAQTFILCAPEGTQLNCHISFFECDTSLVCTDNFAQLDVSITLCLEVQVEADVKIEVEARFCQPREELAEAVLCPTTKFPPQCPDVFPAM", "soluble on expression in E. coli": "not soluble"}
{"sequence": "MAHHHHHHMERSLYYTPQLLWLQVMDRMPYEFTHYFVSSPPPHHEAMLSGIREQYGRPYSAAKPFDVELLGRLWNGHSRVMFATDNLVFSAVDHSVSDRWKEMGFQGTDPSTDFRGAGIFGLAQLVYLVEHHPEEWSAILTPDFMAAAAGLNVTMRLATMLGINSSLNQLSSSVLSKYSAREARLQLCRFIFDPSVDVATQRLSEVYCFAMRLLHYRWMRSTRNIMEFNQQLSSMYTELDRLLFLCNTLEELCSLL", "soluble on expression in E. coli": "not soluble"}
{"sequence": "KSEHETRLEAKLFEDYSSVVRPVEDHREIVQVTVGLQLIQLINVDEVNQIVTTNVRLKQQWVDYNLKWNPDDYGGVKKIHIPSEKIWRPDVVLYNNADGDFAIVKFTKVLLDYTGHITWTPPAIFKSYCEIIVTHFPFDEQNCSMKLGTRTYDGSAVAINPESDQPDLSNFMESGEWVIKEARGWKHWVFYSCCPTTPYLDITYHFVMQRLP", "soluble on expression in E. coli": "soluble"}
{"sequence": "MGSDKIHHHHHHMATPADKLAESLAVLKTLRDQGRKALRSEDMGRTHRERLMRNGFIKEVMKGWYIPSRPDEPAGESTSWYASFWVFCASYLESRFGDEWCVSPEQSIHLHTGNWSVPKQLLIRSPKGGNKPTGLLHGTSILDVRLELPPASDTEIKEGMRIYNLPAALVGCSQTQFSAHPTEMRTALTMMQDASELLGRLLAGGHSKIAGWLAGACRSIGRKQIADDILGAMRAAGYTVNENNPFKDQAQIIFSPRETSPYVNRMRMNWASMREDVLHSFPAAPGLPADSAKYLKQVEAVYVNDAYNSLSIEGYKVSAALIEKVRSGNWNPDSNKDDQDHRNALAARGYWQAFQKVRESIGKVLSQENAGTVAESDHAQWYRELFGPSVTAGILKAADLAGYRNSPVYIRRSMHTPPGKEAVRELMPVLFELLQQENEAAVRVVLGHFMFVYIHPYIDGNGRIGRFLMNLMSASGGYSWIVIPLEQRNDYMAALESASVEGDIKPFSTLLANLVSTG", "soluble on expression in E. coli": "not soluble"}
{"sequence": "MGSDKIHHHHHHMPTLEPKIPGISLNYVVPTPEPELLTGVPVFFGLVTEEVKEAKKLTLATHFQQYFGQAKGYLADAIKGFFENGGRLCYVIALSNNTLEALQQGLETSEVLENIDLICVPDIMLGSDGEVIQMQQAILKHCEQMGDRFAILDALNDIGKLNEQRKRISSQNGALYAPWLKVEFRVDPIPACGHIAGIYASCDRTVGVHGAPANIPLAGVLDLSFSLTPTDQEQLNPKNEAGVNCIRSFQGRGMRVWGVRTLSPIPEWQYVNVRRLFLTFGRWVNRNLADTVFEPNAFPLWVRLQRELSIYCESLWRQGAIQGALPQEAFYVKCDAETNPPENREMGQVIAEIGLAPTIPGEFIQLLVVQSSSGITLT", "soluble on expression in E. coli": "not soluble"}
{"sequence": "MISAHVWADAQRLWDFQQMGHEPHPCSVAIGLGSHDLGVAETTAELYHRGMAPVIVFTGATSRTTHERMPRGEAEHYRERAVELGVPERAILVEPNARNTGENIRLSRALLEDLGMPVTSVLLVSKPYEERRAYATARKLWPNVEWVCVSTSMTLPDYVKSIGDARLVIDMLVGAQQRLMVYPRQGFMIKQEIPEPIMTAYEHLRGHGFTSRLVPETAEQTLEHHHHHH", "soluble on expression in E. coli": "soluble"}
{"sequence": "MIRLSNENTIFFMDKENVPIASCQSGDTVIFETKDCFSDQITNEEQALTSIDFNRVNPATGPLYVEGARRGDMLEIEILDIKVGKQGVMTAAPGLGALGESLNSPTTKLFPIEGDDVVYSTGLRLPLQPMIGVIGTAPPGEPINNGTPGPHGGNLDTKDIKPGTTVYLPVEVDGALLALGDLHAAMGDGEILICGVEIAGTVTLKVNVKKERMFPLPALKTDTHFMTIASAETLDAAAVQATKNMATFLANRTALSIEEAGMLLSGAGDLYVSQIVNPLKTARFSLALHYFEKLGVDLCNLEHHHHHH", "soluble on expression in E. coli": "soluble"}
{"sequence": "MGEKEKEFAVIGLGRFGGSICRELAQLGMEVMAIDSDEDKINEFANIASHAVIADSTDEMVLKSLGIRNFDHVVVAIGDNLNSSILTTLILKELGVKNITVKAQNDYHEKVLSKIGADHIVHPERDMGKRIANNIASSNVLDYLELSDEHSIVEIIANKKIDGHSLIELDIRAKFGLNIVAIKRGKEVIVSPRATENIQAGDILIVIGHDDEVDRFKHFLR", "soluble on expression in E. coli": "not soluble"}
{"sequence": "MSLRNQSKMPLVERLDAHAKSCPISLHVPGHKSGAIYPDAWQKLLKWDVTEITGMDDLHHPEDVILEAEELLAECYGSKKSYFLVNGTSGGNVAVIMATLKRGEKVLVPRDAHKSILHGIELAGGEPIFLTPATNKEVGVASGVTTELLEETLHNHPDVKLCIFTYPSYYGTTFNLQKCIRIAHDFGAVVFVDEAHGAHFLTSSEFPKSAVELGADVVVQSAHKTLPALTMGSYLHVVNDLPIFEKLAYYLQVFQTSSPSYLIMASLDAARKYVATYTAADVEAFWKMRARWIKWLTKNKFEVILPDDPLKIIVRKTGYTGYELQAIFEESSYFPELADESQVLLILPLIKKGIDFTPISRIHSPMKKEIAKEPYEMSTPCASGLALTYEEMHARATEFVLLDEATTRVSAETISLYPPGIPAIIRGEGITEKHIRELKNIRTRHYQGGEKLAENYIRVFREGHHHHHH", "soluble on expression in E. coli": "soluble"}
{"sequence": "MLTKANPPPSKTSPLKVWAVSDGRAGIEAQVVGLAEAISRLAPCEVTVKRVGWQGNIGRLPWWLNLLPKRWLTQESGVPDSRNPDDWPDLWIAAGRATLPLSIRAKRWSGGKSFVVQIQDPRVPPHMFDLVIPPKHDRMSGDNILPITGSPHRVTPQRLAAEYEAFQDLIEPLPRPRVAVLVGGKSKAFDLSSERAAQIAHSIQIPLEQDGGSLLMTFSRRTPETARALMTARLRHLPGVVWNGEGPNPYFAFLAAADYILVTEDSTNMATEAASTGKPVFVLKMDGSSLKFRLFHEELERQGAARPYGGAFHGWTYTPVNETDRAAREVLARIGLEHHHHHH", "soluble on expression in E. coli": "not soluble"}
{"sequence": "MSLATTTSTDNTGLLDVLAPAYKKDTGVDLKWVAVGTGNALKLGENCDVDVVFVHAPKVELEYVEKGFGIDRTPVMYNDFVIIGNPSFKQKFTGMSVAEAFKLIEKEQVKFVSRGDKSGTHSKEREVWKEALGKIPEKESWYIEAGQGMLATINIAEEQKGLTLTDRGTFIKYESNHKGKPPMVIVLEGDNTLKNFYSIMAVNPKRCEKADYKGAKQFIDWIVSEKMQAEIANFKLLDKQLFTPDAKTREGHHHHHH", "soluble on expression in E. coli": "soluble"}
{"sequence": "MAHHHHHHMTSSSVTPDQVLAFTAPTERFLCPLTANKYGVEFYQFTIRDIEQNKVLFEVGEAPDGSADGSVTDMLARVAQLSEEEAAAARTIRYRFAPSFLRKTAVGAKLVFGVNGDQPVPKFRMIERHYFRNVLIKSFDFEFGFCIPHSTNTWEAIYDMPSLNPEWEEAIVASPFEMASDSFYFVGNELIMHNKAYYAYDGEEL", "soluble on expression in E. coli": "not soluble"}
{"sequence": "MGHHHHHHSHMRGCGSRRLCGSWRGCWSWSGKPSTSSRPSPTAALRSWNNENKSALQLERQVKELKLGEPGSYQPAETAAKAQLSLMALPGEGYGGGHLDNEEEAPRPMLNIPGDLESREAMVAFFNSAGASAQEEQSVCCQPLAHPVASSQKKPEAAAPAPETGGESVCGDTHWALQEAMEKLQQLYGRRRWT", "soluble on expression in E. coli": "not soluble"}
{"sequence": "MGSDKIHHHHHHMEVNRLSALTPPMGWNSWDCYGASVTEEEVLGNAEYMANHLKKYGWEYIVVDIQWYEPTANSSAYNPFAPLCMDEYGRLLPATNRFPSAKNGAGFKPLSDAIHDLGLKFGIHIMRGIPRQAVYENSPVLGSTKTAREIAHTNSICPWNTDMYGVDPTKEGAQSYYNSLFELYAQWGVDFVKVDDIAASRLYDTHLEEIKMIQRAIQACGRPMVLSLSPGPAPIKYAHHFKTNANMWRITDDFWDDWSLLYQMFERCEVWEKHIGTGHWPDCGMLPLGHIGIRSVDGPGGDRWTRFTKDEQLTMMNLWAICHSPLMFGGELRDNDEWTLSLLTNEGILSINQKSVLNRFVYREEDKVAWAANGRNGEAYVALFNLHDQQKTLQFRLDMVGIMETVQLFNVWDRSFLQSLAPSESFQIELKPHQSMMLKLSPDR", "soluble on expression in E. coli": "not soluble"}
{"sequence": "MIDLENQEREIINLMFSQRISWLAAVRIRHKLSLAEVSKMLGISINSLKQIEKTERLSSNIKSKMAEIYGCPPELLICPSWMTAEHK", "soluble on expression in E. coli": "not soluble"}
{"sequence": "MRNEEKRALRRELRGRRSQMGRDVRAAATVKINHLLKRYIKKGRKIGVYWPMGKELRLDGFVRAAQKRGAELYLPYIEPRSRRMWFTPYPADGVKQERKRGRAKLHVPQFAGRKKRVHDLNLLLVPVVGMDRLGYRLGQAGGYYDATLSAMKYRLQAKTVGVGFACQLVDRLPVEAHDRSLDGFVSEAGILCF", "soluble on expression in E. coli": "not soluble"}
{"sequence": "MSLKIKVGLIGFGRMGRFYLKEMQKSGRWDVAYICDINPDCRELAKQLSPESKILENEQEMFDDESVQVVGLFALADSRLDRIEKAIKYGKHIISEKPVSDTIDKEWKVVDITEKASCFSTVNLYLRNAWYHQTIKQFIDQGEIGELAILRICHMTPGLAPGEGHEYEGPAFHDCGMHYVDIARWYAGCEYKTWHAQGVNMWSYKDPWWVQCHGTFQNGVVFDITQGFVYGQLSKDQTHNSYVDIIGTKGIARMTHDFKTAVVDLRGVTQTHHIEKPFGGKNIDVLCDLFADSIETGIRNPQLPLIRDSAIASEYAWTFLHDAYTHDLPAIGEGHHHHHH", "soluble on expression in E. coli": "soluble"}
{"sequence": "MLRSAVSALYRASRSFSETVPRLSATPLGKQEPQLSLSYTCKVCNSREGPKTFAKSSYEKGVVIVTCSGCHNHHIIADNIGWFEDFKGKNIEDHLKTRGEAVKRRDTIKNENGIFEIQK", "soluble on expression in E. coli": "not soluble"}
{"sequence": "MGSDKIHHHHHHMKLIWLGHGGFRLETGETTLLIDPWLTGNPMLEDSQHDAATQGATHILLTHAHFDHVADVLELAKHLSVPIVGQYDLMGYWGETEGVQTVGFNKGGTVTVGDTRVSMVPASHSNTFSTRDGLRTAGSEVGYMIRAEGKTLYVSGDTDIMADMDWMGDYYKPEIGILSAGGHFTMDMKAAAYAAQRYFAFKTVIPCHYRTFPLLEQSAQDLIDGLPGVNVIEPQIMKDIEL", "soluble on expression in E. coli": "not soluble"}
